Test results as given in IntAct's records for PubMed 24590075.

B1: Zinc finger MYND domain-containing protein 11 (Mus musculus), Q8R5C8 (parent)
chain: MARLTKRRQADTKAIQHLWAAIEIIRNQKQIANIDRITKYMSRVHGMHPKETTRQLSLAVKDGLIVETLTVGCKGSKAGIEQEGYWLPGDEIDWETETHDWYCFECHLPGEVLICDLCFRVYHSKCLSDEFRLRDSSSHWQCPVCRSIKKKHSNKQEMGTYLRFIVSRMKERAIDLNKKGKDSKHPMYRRLVHSAVDVPTIQEKVNEGKYRSYEEFKADAQLLLHNTVIFYGADSEQADIARMLYKDTCHELDELQLCKNCFYLSNARPDNWFCYPCIPNHELVWAKMKGFGFWPAKVMQKEDNQVDVRFFGHHHQRAWIPSENIQDITVNVHRLHVKRSMGWKKACDELELHQRFLREGRFWKSKNEDRGEEEAESSISSTSNEQLKVTQEPRAKKGRRNQSVEPKKEEPEPETEAVSSSQEIPTMPQPIERVSVSTQTKKLSASSPRMLHRSTQTTSDGVCQSMCHDKYTKIFNDFKDRMKSDHKRETERVVREALEKLRSEMEEEKRQAVNKAVASLQGDMDRKGKQLKEKCKEEFVEEIKKLAAQHKQLISQTKKKQWCYNCEEEAMYHCCWNTSYCSIKCQQEHWHAEHKRTCRRKR

Key:
[1] = variants of: B1; details: with h33_human H3-3A
[2] = variants of: B1; details: with h33_human H3-3A; remark: listed apart in the source

| effect of a mutation on the interaction [1] | effect of a mutation on the interaction [2] | Variant |
| --- | --- | --- |
| disrupting interaction strength | decreasing interaction strength | W294A |
| disrupting interaction strength | decreasing interaction strength | F310A |
| – | decreasing interaction strength | D307N |

Second part, the variant before the results:

| Variant | effect of a mutation on the interaction [1] | effect of a mutation on the interaction [2] |
| --- | --- | --- |
| R168A | disrupting interaction strength | decreasing interaction strength |
| E251A | disrupting interaction strength | decreasing interaction strength |
| N266A | disrupting interaction strength | decreasing interaction strength |
| F291A | disrupting interaction strength | – |
